In publication PMC7338052 one finds fold change of AR co-immunoprecipitated with CHK2 after IR against untreated cells data, which are given here for 1 substance.

This experiment has as its target endogenous CHK2 (human (endogenous in LNCaP)) (UniProt O96017). Description: co-IP; LNCaP cells expressing wtAR, S81A or S308A for 48 hr; untreated or 6 Gy IR; endogenous CHK2 immunoprecipitated one hour after IR from 1 mg lysate; blotted for AR.
Sequence of UniProt O96017 (O96017 whole entry): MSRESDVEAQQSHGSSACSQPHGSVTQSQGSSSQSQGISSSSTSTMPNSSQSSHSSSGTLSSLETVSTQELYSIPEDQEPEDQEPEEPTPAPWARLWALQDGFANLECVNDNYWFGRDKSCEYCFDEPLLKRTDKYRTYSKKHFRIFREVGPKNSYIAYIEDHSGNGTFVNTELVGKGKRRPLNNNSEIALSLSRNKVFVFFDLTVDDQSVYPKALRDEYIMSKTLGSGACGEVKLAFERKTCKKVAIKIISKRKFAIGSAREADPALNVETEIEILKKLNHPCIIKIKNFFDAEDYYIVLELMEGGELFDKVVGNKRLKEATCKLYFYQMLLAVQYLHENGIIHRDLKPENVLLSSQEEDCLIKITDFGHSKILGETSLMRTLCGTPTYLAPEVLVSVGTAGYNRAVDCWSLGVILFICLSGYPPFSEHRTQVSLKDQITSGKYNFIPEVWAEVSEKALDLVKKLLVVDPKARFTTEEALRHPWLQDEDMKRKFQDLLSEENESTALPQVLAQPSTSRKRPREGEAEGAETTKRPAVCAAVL

As to “wtAR expressed in LNCaP cells (from UniProt P10275 1-920) (receptor)”, the fold change of AR co-immunoprecipitated with CHK2 after IR against untreated cells amounted to 4 fold.
